No end group written: not given here.
B1: human recombinant (r)BCMA_Fc-AF647 (Fc fusion)
chain: MLQMAGQCSQNEYFDSLLHACIPCQLRCSSNTPPLTCQRYCNASVTNSVKGTNA
modifications: cysteine pairing not given here; also: Alexa Fluor 647 label, Fc fusion tag, unspecified
notes: In-house flow cytometry staining reagent; not shown: Fc part of an in-house reagent

What was measured:
[1] = biological target: B1; assay: flow cytometry; rBCMA_Fc-AF647 staining of CAR-transduced primary human T cells, day 5 of culture (reported by the filing as CAR expression)
Description: (§1) BCMA CAR T cells were generated by starting with blood from healthy apheresed donors whose T cells (CD4+ and CD8+ lymphocytes) were obtained by negative selection for CD3+ T cells. These cells were activated by the addition of CD3/CD28 beads (Dynabeads® Human T-Expander CD3/CD28, Thermo Fisher Scientific) at a ratio of 1:3 (T cell to bead) in T cell medium (RPMI1640, 10% heat-inactivated fetal calf serum (FCS), 2 mM L-glutamine, 1× Penicillin/Streptomycin, 100 μM non-essential amino acids, 1 mM Sodium Pyruvate, 10 mM Hepes, and 55 μM 2-mercaptoethanol). T cells were cultured at 0.5×10⁶ T cells in 1 mL medium per well of a 24-well plate at 37° C., 5% CO₂. After 24 hours, when T cells were blasting, T cells were transduced with BCMA CAR virus at a multiplicity of infection (MOI) of 5. […] Aliquots of T cells were stained to measure CAR expression by flow cytometry at day 5 and 9 on a FACS Fortessa (BD). All BCMA CAR T cells were produced under research grade (i.e., not clinical grade) manufacturing conditions.
(§2) The BCMA-CAR surface expression and its stability was assessed by measuring CAR % and MFI (mean fluorescence intensity) at day 5 and day 9 using flow cytometry analyses of rBCMA_Fc-AF647 stained cells (FIG. 2 and Table 27).

[2] = biological target: B1; assay: flow cytometry; rBCMA_Fc-AF647 staining of CAR-transduced primary human T cells, day 9 of culture (reported by the filing as CAR expression)
Description: as §1, §2

245 = biological target: T1, 245; assay: flow cytometry, T cells with construct 245, day 8, MFI of rBCMA-Fc stain
T1 construct: also called c245; Mono-duBCMA.4

[3] = biological target: T2, anti-BCMA CAR arm of duCD19.1-P2A-duBCMA.4 (construct 234); assay: flow cytometry, T cells with construct 234, day 8, MFI of rBCMA-Fc stain
T2 construct: also called c234; duCD19.1-duBCMA.4

[4] = biological target: B1; assay: flow cytometry, T cells with construct 244, day 8, rBCMA-Fc AF647 stain
Description: BCMA-CD19 dual or monoBCMA or monoCD19 CART cells were generated using human primary T cells (CD4+ and CD8+ lymphocytes) obtained by negative selection or positive selection via Prodigy upon processing blood from healthy apheresed donors. Before transduction, the T cells were activated using CD3/CD28 beads (Dynabeads® Human T-Expander CD3/CD28, Thermo Fisher Scientific) at a ratio of 1:3 (T cell to bead) in T cell medium (RPMI1640, 10% heat-inactivated fetal calf serum (FCS), 2 mM L-glutamine, 1× Penicillin/Streptomycin, 100 μM non-essential amino acids, 1 mM Sodium Pyruvate, 10 mM Hepes, and 55 μM 2-mercaptoethanol). The cells were cultured at a density of 0.5×10⁶/mL medium per well in a 24-well plate at 37° C., 5% CO₂. After 24 hours, when T cells were blasting, they were transduced with viruses at a multiplicity of infection (MOI) of 5 based on the upstream CAR titer. T cells began to divide in a logarithmic growth pattern, which was monitored by measuring the cell counts per mL, and T cells were diluted in fresh medium every two days and de-beaded and harvested for further analyses on day 8 or beyond depending on the size of the cells. Aliquots of T cells were stained to measure CAR expression by flow cytometry on day 7 or 8 on a FACS Fortessa (BD).

Binder | CAR MFI on T cells (Day 5) [1] | CAR MFI on T cells (Day 9) [2] | binding result 245 | binding result [3] | binding result [4]
Hy52 BCMA CAR (other, CAR on transduced JNL cells or primary human T cells) EVQLVESGGGLVKPGGSLRLSCAASGFTFSSFRMNWVRQAPGKGLEWVSSISSSSSYIYYADSVKGRFTISRDNAKNSLYLQMNSLRAEDTAVYYCARWLSYYGMDVWGQGTTVTVSSGGGGSGGGGSGGGGSGGGGSDIVMTQTPLSLPVTPGEPASISCRSSQSLLDSDDGNTYLDWYLQKPGQSPQLLIYTLSFRASGVPDRFSGSGSGTDFTLKIRRVEAEDVGVYYCMQRIGFPITFGQGTRLEIKTTTPAPRPPTPAPTIASQPLSLRPEACRPAAGGAVHTRGLDFACDIYIWAPLAGTCGVLLLSLVITLYCKRGRKKLLYIFKQPFMRPVQTTQEEDGCSCRFPEEEEGGCELRVKFSRSADAPAYQQGQNQLYNELNLGRREEYDVLDKRRGRDPEMGGKPRRKNPQEGLYNELQKDKMAEAYSEIGMKGERRRGKGHDGLYQGLSTATKDTYDALHMQALPPR | 33700 MFI | 2860 MFI | – | – | –
B1 | – | – | binds | binds | –
PI61 BCMA CAR (other, CAR on transduced JNL cells or primary human T cells; also called P161; Mono PI61) QVQLQESGGGVVQPGRSLRLSCAASGFTFSSYGMHWVRQAPGKGLEWVAVISYDGSNKYYADSVKGRFTISRDNSKNTLYLQMNSLRAEDTAVYYCGGSGYALHDDYYGLDVWGQGTLVTVSSGGGGSGGGGSGGGGSQSALTQPASVSGSPGQSITISCTGTSSDVGGYNYVSWYQQHPGKAPKLMIYDVSNRPSGVSNRFSGSKSGNTASLTISGLQAEDEADYYCSSYTSSSTLYVFGSGTKVTVLTTTPAPRPPTPAPTIASQPLSLRPEACRPAAGGAVHTRGLDFACDIYIWAPLAGTCGVLLLSLVITLYCKRGRKKLLYIFKQPFMRPVQTTQEEDGCSCRFPEEEEGGCELRVKFSRSADAPAYQQGQNQLYNELNLGRREEYDVLDKRRGRDPEMGGKPRRKNPQEGLYNELQKDKMAEAYSEIGMKGERRRGKGHDGLYQGLSTATKDTYDALHMQALPPR | 24400 MFI | 2100 MFI | – | – | –
Hy03 BCMA CAR (other, CAR on transduced JNL cells or primary human T cells) EVQLVESGGGLVQPGGSLRLSCAASGFTFSGFWMSWVRQAPGKGLEWVANIKQDGSEKYYVDSVRGRFTISRDNAKNSLYLQMNSLRAEDTAVYYCARALDYYGMDVWGQGTTVTVSSGGGGSGGGGSGGGGSGGGGSDIVMTQTPLSLPVTPGEPASISCRSSQSLLDSDDGNTYLDWYLQKPGQSPRLLIYTLSYRASGVPDRFSGSGSGTDFTLKISRVEAEDVGLYYCTQRLEFPSITFGQGTRLEIKTTTPAPRPPTPAPTIASQPLSLRPEACRPAAGGAVHTRGLDFACDIYIWAPLAGTCGVLLLSLVITLYCKRGRKKLLYIFKQPFMRPVQTTQEEDGCSCRFPEEEEGGCELRVKFSRSADAPAYQQGQNQLYNELNLGRREEYDVLDKRRGRDPEMGGKPRRKNPQEGLYNELQKDKMAEAYSEIGMKGERRRGKGHDGLYQGLSTATKDTYDALHMQALPPR | 9460 MFI | 929 MFI | – | – | –
duCD19.1 anti-CD19 CAR (other, CAR on transduced primary human T cells; also called CTL119; Mono-duCD19.1) EIVMTQSPATLSLSPGERATLSCRASQDISKYLNWYQQKPGQAPRLLIYHTSRLHSGIPARFSGSGSGTDYTLTISSLQPEDFAVYFCQQGNTLPYTFGQGTKLEIKGGGGSGGGGSGGGGSQVQLQESGPGLVKPSETLSLTCTVSGVSLPDYGVSWIRQPPGKGLEWIGVIWGSETTYYQSSLKSRVTISKDNSKNQVSLKLSSVTAADTAVYYCAKHYYYGGSYAMDYWGQGTLVTVSSTTTPAPRPPTPAPTIASQPLSLRPEACRPAAGGAVHTRGLDFACDIYIWAPLAGTCGVLLLSLVITLYCKRGRKKLLYIFKQPFMRPVQTTQEEDGCSCRFPEEEEGGCELRVKFSRSADAPAYQQGQNQLYNELNLGRREEYDVLDKRRGRDPEMGGKPRRKNPQEGLYNELQKDKMAEAYSEIGMKGERRRGKGHDGLYQGLSTATKDTYDALHMQALPPR | – | – | – | – | no binding
B61-10 BCMA CAR (other, CAR on transduced JNL cells or primary human T cells) QVQLVESGGGVVQPGRSLRLSCAASGFTFSSYGMHWVRQAPGKGLEWVAVISYKGSNKYYADSVKGRFTISRDNSKNTLYLQMNSLRAEDTAVYYCGGSGYALHDDYYGLDVWGQGTLVTVSSGGGGSGGGGSGGGGSGGGGSQSALTQPASVSGSPGQSITISCTGTSSDVGGYNYVSWYQQHPGKAPKLMIYEVSNRLRGVSNRFSGSKSGNTASLTISGLQAEDEADYYCSSYTSSSTLYVFGSGTKVTVLTTTPAPRPPTPAPTIASQPLSLRPEACRPAAGGAVHTRGLDFACDIYIWAPLAGTCGVLLLSLVITLYCKRGRKKLLYIFKQPFMRPVQTTQEEDGCSCRFPEEEEGGCELRVKFSRSADAPAYQQGQNQLYNELNLGRREEYDVLDKRRGRDPEMGGKPRRKNPQEGLYNELQKDKMAEAYSEIGMKGERRRGKGHDGLYQGLSTATKDTYDALHMQALPPR | 27300 MFI | 3290 MFI | – | – | –
B61-02 BCMA CAR (other, CAR on transduced JNL cells or primary human T cells) QVQLVESGGGVVQPGRSLRLSCAASGFTFSSYGMHWVRQAPGKGLEWVAVISYKGSNKYYADSVKGRFTISRDNSKNTLYLQMNSLRAEDTAVYYCGGSGYALHDDYYGLDVWGQGTLVTVSSGGGGSGGGGSGGGGSGGGGSQSALTQPASVSGSPGQSITISCTGTSSDVGGYNYVSWYQQHPGKAPKLMIYEVSNRLRGVSNRFSGSKSGNTASLTISGLQAEDEADYYCSSYTSSSALYVFGSGTKVTVLTTTPAPRPPTPAPTIASQPLSLRPEACRPAAGGAVHTRGLDFACDIYIWAPLAGTCGVLLLSLVITLYCKRGRKKLLYIFKQPFMRPVQTTQEEDGCSCRFPEEEEGGCELRVKFSRSADAPAYQQGQNQLYNELNLGRREEYDVLDKRRGRDPEMGGKPRRKNPQEGLYNELQKDKMAEAYSEIGMKGERRRGKGHDGLYQGLSTATKDTYDALHMQALPPR | 29100 MFI | 3470 MFI | – | – | –

Reference: patent US20210220404A1 (Novartis, published 2021)
